Laboratory results published in PMC5393055 (Genes & Development, 2017).

Biological target: T1, full-length GST-SUUR (Drosophila, UniProt Q9VTE2 1-962)
T1 sequence (looked up): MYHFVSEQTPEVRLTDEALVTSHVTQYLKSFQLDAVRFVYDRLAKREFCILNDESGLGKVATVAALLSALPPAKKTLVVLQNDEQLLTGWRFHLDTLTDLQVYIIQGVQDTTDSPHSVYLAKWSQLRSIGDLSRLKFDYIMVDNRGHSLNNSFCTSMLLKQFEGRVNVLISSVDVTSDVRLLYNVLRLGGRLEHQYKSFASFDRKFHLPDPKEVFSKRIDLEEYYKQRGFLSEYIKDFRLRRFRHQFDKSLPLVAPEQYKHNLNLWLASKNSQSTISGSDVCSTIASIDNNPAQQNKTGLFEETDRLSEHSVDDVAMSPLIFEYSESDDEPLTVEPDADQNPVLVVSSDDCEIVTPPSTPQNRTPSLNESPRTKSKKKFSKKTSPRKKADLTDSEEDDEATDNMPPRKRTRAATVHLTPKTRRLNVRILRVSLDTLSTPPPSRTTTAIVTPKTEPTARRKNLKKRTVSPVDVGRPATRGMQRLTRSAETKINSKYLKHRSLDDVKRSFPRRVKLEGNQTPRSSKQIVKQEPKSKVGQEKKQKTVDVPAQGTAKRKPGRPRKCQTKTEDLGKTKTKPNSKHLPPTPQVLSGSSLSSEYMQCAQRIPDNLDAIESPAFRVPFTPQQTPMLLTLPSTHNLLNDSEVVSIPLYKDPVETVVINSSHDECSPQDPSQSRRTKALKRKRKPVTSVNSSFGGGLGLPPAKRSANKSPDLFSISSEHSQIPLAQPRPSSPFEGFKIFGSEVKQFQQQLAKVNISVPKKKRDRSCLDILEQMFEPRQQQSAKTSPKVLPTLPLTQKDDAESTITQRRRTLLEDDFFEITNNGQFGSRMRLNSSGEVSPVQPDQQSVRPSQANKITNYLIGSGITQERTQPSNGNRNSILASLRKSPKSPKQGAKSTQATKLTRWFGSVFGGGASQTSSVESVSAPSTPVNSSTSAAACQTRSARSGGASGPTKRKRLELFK
Test: pull-down

- binding result: binds
B1: recombinant untagged full-length H1 (natural protein, Drosophila, UniProt P02255 1-256, looked up)
chain: MSDSAVATSASPVAAPPATVEKKVVQKKASGSAGTKAKKASATPSHPPTQQMVDASIKNLKERGGSSLLAIKKYITATYKCDAQKLAPFIKKYLKSAVVNGKLIQTKGKGASGSFKLSASAKKEKDPKAKSKVLSAEKKVQSKKVASKKIGVSSKKTAVGAADKKPKAKKAVATKKTAENKKTEKAKAKDAKKTGIIKSKPAATKAKVTAAKPKAVVAKASKAKPAVSAKPKKTVKKASVSATAKKPKAKTTAAKK
